Here are results for five sequences from the supplement of paper PMC12455559.

± gives the standard deviation of the averaged measurements. Where only a bound is given, the exact number is not on record here.

A short description of series [1]: purified protein yield per well (BCA); higher = higher soluble expression. A digest of the protocol:
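Values under 25 ug (0.1 mg/mL) are below the detection threshold. Purified protein yield per well was quantified with the Pierce Rapid Gold BCA kit after candidate enzymes, expressed in E. coli C41(DE3), were captured on Ni-charged magnetic beads and released by SUMO protease on an OT-2 robot. Cultures were 2 mL autoinduction with 100 µg/mL kanamycin, run 2 h at 37 °C and then 40 h at 18 °C.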

Series [2] is described as follows: melting temperature (DSF); higher = more thermostable. A digest of the protocol: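 Enzymes made in E. coli C41(DE3) were nickel-bead purified and cut free with SUMO protease before testing. Differential scanning fluorimetry gave each melting temperature. For this, 5 μL 5X Sypro Orange was added to 45 μL enzyme (0 to 0.3 mg/mL) in sealed PCR plates, and a Bio-Rad CFX96 read fluorescence from 25 °C over 250 cycles of 0.3 °C each, ramping at 0.3 °C/s.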

Series [3] is described as follows: PET hydrolysis, aromatic products released after 48 h (umol product/mg enzyme); higher = more PET depolymerization activity. Summed up:
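The measure of PET hydrolysis activity is aromatic product released into the supernatant, given per mg enzyme. Nickel-purified, SUMO-cleaved enzyme without tag was added at 5 μg (50 μL) to 3.5 mg amorphous PET film or crystalline PET powder in 450 μL of citrate, phosphate or glycine buffer spanning pH 4.5 to 8.5. After 48 h at 40 or 60 °C in sealed plates without shaking, absorbance at 260 and 280 nm was taken against buffer blanks.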

Where [4] appears, read: substrate: aFilm, 40 °C, pH 5.5.
[5] abbreviates: substrate: aFilm, 40 °C, pH 6.5.
The mark [6] stands for this setting: substrate: aFilm, 40 °C, pH 7.5.
The mark [7] stands for this setting: substrate: aFilm, 60 °C, pH 5.5.
The mark [8] stands for this setting: substrate: aFilm, 60 °C, pH 6.5.
[9] abbreviates: substrate: aFilm, 60 °C, pH 7.5.
Setting [10] is: substrate: cryPow, 40 °C, pH 5.5.
[11] abbreviates: substrate: cryPow, 40 °C, pH 6.5.
[12] abbreviates: substrate: cryPow, 40 °C, pH 7.5.
Where [13] appears, read: substrate: cryPow, 60 °C, pH 5.5.
The mark [14] stands for this setting: substrate: cryPow, 60 °C, pH 6.5.
[15] abbreviates: substrate: cryPow, 60 °C, pH 7.5.
Setting [16] is: substrate: cryPow, 40 °C, pH 4.5.
Setting [17] is: substrate: aFilm, 40 °C, pH 4.5.
Where [18] appears, read: substrate: aFilm, 60 °C, pH 4.5.
Setting [19] is: substrate: cryPow, 60 °C, pH 4.5.

With “ADNPFQRGPDPTRASVAAQTGPFANASVSVPTGYGFNGGRIYYPTDTSQGTFGAIAISPGYTALFSAELAWMGPWLASHGFVVIGIETNSRNDFDTARGTQLLAALDYLTQQSPVRDRVDPNRLAVSGHSMGGGGALSAASRRSSLKAAVGITPYSPSSNLANDRVPTMIISGQADTVVTPSYALGLYNSLPATTESVYLEVAGGDHGFMVGRSNPVMIRTMLPFVKMFIDNDTRYSQFLCPLADSSGVVTYRSTCPLLPGAPTTPPTTPPTDSPGSAGEIVGTQSGRCIDVPNAARDNGTRVQLYDCNKQPNQSWTYTSNKQLQVYGDRCLDAAGSGNGAAVQIYSCHSQTNQQWNLNSNGTISNVQSGRCLDVWSTANGAQVQLYDCHGQTNQQFRLASRTR [DP061]”, the “purified protein yield per well” value in series [1] is 265 µg. Further, in series [2], the melting temperature stood at 59.8 C. The PET hydrolysis in series [3] (setting [4]) is less than 3; in series [3] (setting [5]) it was less than 3; in series [3] (setting [6]) it was less than 3; in series [3] (substrate: aFilm, 40 °C, pH 8.5) it was less than 3; in series [3] (setting [7]) it was less than 3; in series [3] (setting [8]), less than 3. The PET hydrolysis in series [3] (setting [9]) was less than 3; in series [3] (substrate: aFilm, 60 °C, pH 8.5), less than 3; in series [3] (setting [10]), 14 ± 2.8; in series [3] (setting [11]), 20 ± 1.4; in series [3] (setting [12]), 7.5 ± 5; in series [3] (substrate: cryPow, 40 °C, pH 8.5), 2 ± 2.8. The PET hydrolysis in series [3] (setting [13]) was less than 3; in series [3] (setting [14]) it was less than 3; in series [3] (setting [15]), less than 3; in series [3] (substrate: cryPow, 60 °C, pH 8.5), less than 3.

Regarding “ADNPYQRGPDPTPAGVAASRGPFATAQTTVAPGNGFNGGTIYYPTDTSAGTWGAVAIVPGYTALFADEEAWMGPWLSSFGFVVIGIETNSRTDFDVARGTQLLAALDYLTQQSPVRDRVDTSRLSVIGHSMGGGGVVYATEHRPSLKAAVALAPFSPSQDMSTDRVPTMVMAGQNDTVVTPSYLDGLYATMPAATQSDFVQIAGADHVYYTHPQSTEMRILIPWLKIFVDNDTRYTQFLCPSLSDSSGISIYRSKCPYVPPGTSTTGGTTSGTTSGGTTTGGTTSGGTTTGGTTSGGTTSGGTSGSACTASYATVNTWSGGFQGEVTVTAGGKPVNGWTVRWTLAGGQGISQVWNGTVSTSGSDVSVRNVSYNGSLQPSTSTTFGFLGTGTPSDVSLSCTSP [ESM043]”, the “purified protein yield per well” value in series [1] is 31.4 µg. Further, the melting temperature in series [2] was 37 C. For the same sequence, the PET hydrolysis is 4 in series [3] (setting [16]), 11 in series [3] (setting [10]), 5 in series [3] (setting [11]) and less than 3 in series [3] (setting [12]).

“ADNPYQRGPDPTPASIAADHGPFATAQTTIPKGNGLGGGIVYYPTDTSQGTFGAIAIAPGYGTEWRWYGWLGPRLASFGFVVVGIETNSLSDYADARADQLLAALDWLVTSSPVRDRVDRTRLAVGGHSMGGGGALVAATRRPSLRSAVGMAPYVPDGILRGTSVPTILFGGQADTTVTPAYLASAYATIPATVPRAYPEIAGEGHGFAAGGGGGNSGAFARVMMVWLKVFVDADTRYPPFLCPTLSNTSGISKYQASCPLGPGGTIPPPDTSRLANANAGRCLDASGAGTANGTKVILWTCNHGANQQWNRT [ESM139]”: in series [1], the “purified protein yield per well” value is 305 µg. The same sequence yielded a melting temperature in series [2] of 65.5 C. In addition, the PET hydrolysis in series [3] (setting [17]), in series [3] (setting [4]), in series [3] (setting [5]), in series [3] (setting [6]), in series [3] (setting [18]) and in series [3] (setting [7]) was less than 3 throughout. The PET hydrolysis in series [3] (setting [8]) was less than 3; in series [3] (setting [9]) it was less than 3; in series [3] (setting [16]), less than 3; in series [3] (setting [10]), less than 3; in series [3] (setting [11]), 1.5 ± 2.1; in series [3] (setting [12]), 3.5 ± 0.71. The PET hydrolysis in series [3] (setting [19]), in series [3] (setting [13]), in series [3] (setting [14]) and in series [3] (setting [15]) was less than 3 each time.

“ADNPYQRGPDPTAESVRASRGTFATTQVTVPAGNGFGGGVIYHPTDTSQGTFGAVAIVPGYTATWAAEGAWMGHWLASFGFVVIGVDTINRNDWDTARGTQLLAALDYLTQQSPVRNRVDASRAAVMGHSMGGGGAMSAALRRPSLKAAVGLAPFSPSQNLTNTRVPTMLIAGQNDGTTTPASISTLYNGIPASTESAYLEFAGAGHGFPTSNNPLMMRVVIPWLKIFVDNDTRYSQFLCPLTDRTGITQYRSTCPLTPPGAPTSPPTTTAPPTPTTSPSVTPSTSPSATPTTPAPDGACRATYRTTNSWPGGYQAEVTVTAGNSPINGWTVRWTLGSGQSISQVWNGTLTTSGSAVTVRNVSYNGSLQPGTSTTFGFIGGGTPSTPVLACVSP [ESM018]”: the “purified protein yield per well” value in series [1] came to 530 µg. This sequence came in with a melting temperature in series [2] of 61.3 C. For the same sequence, the PET hydrolysis in series [3] (setting [17]), in series [3] (setting [4]), in series [3] (setting [5]), in series [3] (setting [6]), in series [3] (setting [18]) and in series [3] (setting [7]) was less than 3 throughout. Also, the PET hydrolysis in series [3] (setting [8]) was less than 3; in series [3] (setting [9]) it was less than 3; in series [3] (setting [16]) it was less than 3; in series [3] (setting [10]) it was 3; in series [3] (setting [11]), 11 ± 1.4; in series [3] (setting [12]), 30 ± 1.4. Moreover, the PET hydrolysis was less than 3 in series [3] (setting [19]), less than 3 in series [3] (setting [13]), 7 ± 9.9 in series [3] (setting [14]) and less than 3 in series [3] (setting [15]).

“DVNPFQRGPDPTAAGVAAARGPFATAQVTVPAGNGFGGGVVYYPTDTSQGTFGAIAIAPGYGTAWSYYAWQGPRLASFGFVVIGIETNTLNDYADARAAQLLAALDWLVTSSPVRDRVDRNRLAVGGHSMGGGGALLAAIQRPSLMTAIGMAPYVPGGDLSGIRIPTVLFAGQTDGTVTPSYALSAYTTIPGSVERAYVEIANEGHGFPAGGGGGNSGAFARTEMIWMKLFIDKDTRYAPFLCPSLSNMNGISRYQASCPLDPPGGTTPTPSATPTSSPTSTPTSTPSATSALRGAGSSRCLDVPGASQTNGTQLQIWDCNGQANQRWTSTSAGELRVYGGKCLDVNGAGTADGTSVIIWDCNGQNNQKWRLNSDGSITAVGANKCLDVSGAGTANGTKVQIWTCNGQANQRWTRT [ESM026]”: the “purified protein yield per well” value in series [1] is 305 µg. This sequence returned a melting temperature in series [2] of 65.8 C. The PET hydrolysis in series [3] (setting [17]), in series [3] (setting [4]), in series [3] (setting [5]), in series [3] (setting [6]), in series [3] (setting [18]) and in series [3] (setting [7]) was less than 3 throughout. Also, the PET hydrolysis was less than 3 in series [3] (setting [8]); less than 3 in series [3] (setting [9]); less than 3 in series [3] (setting [16]); 4.5 ± 0.71 in series [3] (setting [10]); 8.5 ± 0.71 in series [3] (setting [11]); 9.5 ± 0.71 in series [3] (setting [12]). In addition, the PET hydrolysis in series [3] (setting [19]), in series [3] (setting [13]), in series [3] (setting [14]) and in series [3] (setting [15]) was less than 3 throughout.
